Read-outs that look alike come from different tables or passages of the source.
T1: CDT1^ΔN (N-terminally truncated CDT1^158-546) (human, UniProt Q9H211 158-546)
T1 chain: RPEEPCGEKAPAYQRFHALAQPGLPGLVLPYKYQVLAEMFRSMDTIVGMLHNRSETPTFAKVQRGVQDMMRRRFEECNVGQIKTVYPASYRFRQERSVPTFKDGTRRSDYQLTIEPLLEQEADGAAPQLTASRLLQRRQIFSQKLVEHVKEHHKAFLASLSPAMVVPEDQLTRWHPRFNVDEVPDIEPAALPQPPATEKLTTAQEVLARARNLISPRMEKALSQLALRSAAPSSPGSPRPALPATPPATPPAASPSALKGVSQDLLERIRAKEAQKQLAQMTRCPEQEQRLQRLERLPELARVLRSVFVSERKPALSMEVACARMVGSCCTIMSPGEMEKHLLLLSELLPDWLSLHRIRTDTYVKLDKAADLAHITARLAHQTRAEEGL

T2: CDT1^ΔN (N-terminally truncated CDT1^158-546) (human, UniProt Q9H211 158-546)
T2 construct: CDT1, human, UniProt Q9H211, residues 158-546 (lacks the unstructured N-terminus); Plasmid is in Supplementary Data 1; The His tag serves for capture on the NTA chip in the SPR with peptides; also called standard CDT1 construct; source: E. coli BL21 (DE3), purified (HisTrap Excel, POROS HS, Superdex 200); not shown: His6, N-terminal, kept
T2 sequence (looked up): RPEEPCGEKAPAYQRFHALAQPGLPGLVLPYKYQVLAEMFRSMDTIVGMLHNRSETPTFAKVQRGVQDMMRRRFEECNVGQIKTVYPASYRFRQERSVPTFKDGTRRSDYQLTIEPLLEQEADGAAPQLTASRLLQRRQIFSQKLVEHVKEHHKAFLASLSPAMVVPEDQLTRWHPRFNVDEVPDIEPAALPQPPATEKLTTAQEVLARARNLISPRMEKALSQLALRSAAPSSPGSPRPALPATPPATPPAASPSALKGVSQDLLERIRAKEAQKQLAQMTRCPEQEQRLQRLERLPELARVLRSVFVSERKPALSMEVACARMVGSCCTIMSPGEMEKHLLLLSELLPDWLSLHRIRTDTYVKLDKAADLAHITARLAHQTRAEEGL


How the values were obtained:
[1] = biological target: T1, CDT1^ΔN (N-terminally truncated …); test: SPR
[2] = biological target: T1, CDT1^ΔN (N-terminally truncated …); test: SPR
[3] = biological target: the molecule itself; test: SEC-MALS; Superdex 200 Increase 10/300 GL; peptides 500–1000 µM, 100 µL injected; 10 mM HEPES, 150 mM NaCl, 1 mM TCEP-HCl, pH 7.5; 0.25 mL/min
[4] = biological target: T2, CDT1^ΔN (N-terminally truncated …); test: SPR; multi-cycle; CDT1^ΔN captured by its N-terminal His tag on an NTA chip; geminin peptides 0.49–250 nM (two-fold steps); 25 °C; 10 mM HEPES, 500 mM NaCl, 50 µM EDTA, 1 mM TCEP-HCl, 0.05% Tween-20, pH 8.0; 1:1 kinetic model of analyte dimer:CDT1, steady-state 1:1 model for Gem^96–160 and Gem^102–160; details: both partners purified
[5] = biological target: T1, CDT1^ΔN (N-terminally truncated …); test: SPR
[6] = biological target: T1, CDT1^ΔN (N-terminally truncated …); test: SPR
[7] = biological target: T1, CDT1^ΔN (N-terminally truncated …); test: SPR
[8] = biological target: T2, CDT1^ΔN (N-terminally truncated …); test: SPR; CDT1^ΔN with Gem^LINK; steady-state 1:1 binding model; chip and cycle format not stated for Gem^LINK; 25 °C; 10 mM HEPES, 500 mM NaCl, 50 µM EDTA, 1 mM TCEP-HCl, 0.05% Tween-20, pH 8.0; details: both partners purified

Row | Binder | stoichiometry N [3] | binding result [4] | Kd [4] [nM] | also measured
1 | Ac-SQYWKEVAEKRRKALYEALKENEKLHKEIEQKDNEIARLKKENKE-NH2 (peptide, UniProt O75496 96-140, looked up, geminin, human, UniProt O75496, residues 96-140; Made on Rink amide resin; source: synthetic peptide) [Gem^96–140] | 2 | binds |  | koff [1]: 0.022 s⁻¹; Kd [2]: 32 nM
2 | Gem^96–160 (geminin coiled-coil peptide) (peptide, UniProt O75496 96-160, looked up, geminin, human, UniProt O75496, residues 96-160 (the full coiled-coil); Made on Rink amide resin; source: synthetic peptide) peptide: Ac-SQYWKEVAEKRRKALYEALKENEKLHKEIEQKDNEIARLKKENKELAEVAEHVQYMAELIERLNG-NH2 | 2 | binds |  | Kd [2]: 21 nM
3 | Gem^90–145 (peptide, UniProt O75496 90-145, looked up, geminin, human, UniProt O75496, residues 90-145; Made on Rink amide resin; source: synthetic peptide) peptide: Ac-IKENPSSQYWKEVAEKRRKALYEALKENEKLHKEIEQKDNEIARLKKENKELAEVA-NH2 | 2 |  | 93 | koff [5]: 0.045 s⁻¹
4 | Ac-SQYWKEVAEKRRKALYEALKENEKLHKEIEQKDNEIARLK-NH2 (peptide, UniProt O75496 96-135, looked up, Made on Rink amide resin; source: synthetic peptide) [Gem^96–135 (minimal CDT1-binding peptide)] | 2 | binds |  | koff [1]: 0.024 s⁻¹; Kd [2]: 22 nM
5 | Gem^76–135 (peptide, UniProt O75496 76-135, looked up, Made on Rink amide resin; source: synthetic peptide) peptide: Ac-KNLGGVTQESFDLMIKENPSSQYWKEVAEKRRKALYEALKENEKLHKEIEQKDNEIARLK-NH2 | 2 | binds |  | Kd [6]: 7 nM; koff [7]: 0.0029 s⁻¹
6 | Ac-SQYWKEVAEKRRKALYEALKENEKLHKEIEQKDNEIARLKKENKELAEVA-NH2 (peptide, UniProt O75496 96-145, looked up, geminin, human, UniProt O75496, residues 96-145; Made on Rink amide resin; source: synthetic peptide) [Gem^96–145] | 2 |  | 38 | koff [1]: 0.031 s⁻¹
7 | Gem^76–140 (peptide, UniProt O75496 76-140, looked up, geminin, human, UniProt O75496, residues 76-140; Made on Rink amide resin; source: synthetic peptide) peptide: Ac-KNLGGVTQESFDLMIKENPSSQYWKEVAEKRRKALYEALKENEKLHKEIEQKDNEIARLKKENKE-NH2 | 2 | binds |  | Kd [6]: 11 nM; koff [7]: 0.0033 s⁻¹
8 | Gem^82–145 (peptide, UniProt O75496 82-145, looked up, geminin, human, UniProt O75496, residues 82-145; Made on Rink amide resin; source: synthetic peptide) peptide: Ac-TQESFDLMIKENPSSQYWKEVAEKRRKALYEALKENEKLHKEIEQKDNEIARLKKENKELAEVA-NH2 | 2 |  | 5.8 | koff [5]: 0.0032 s⁻¹
9 | Gem^76–145 (chemically synthesised peptide) (peptide, UniProt O75496 76-145, looked up, geminin, human, UniProt O75496, residues 76-145; Made on Rink amide resin; The recombinant recGem^76–145 is another molecule, used only in licensing assays; source: synthetic peptide) peptide: Ac-KNLGGVTQESFDLMIKENPSSQYWKEVAEKRRKALYEALKENEKLHKEIEQKDNEIARLKKENKELAEVA-NH2 | 2 |  | 5.7 | koff [5]: 0.0034 s⁻¹
10 | Gem^LINK (geminin with a short glycine linker between the two CDT1 interaction interfaces) (natural protein, Full-length geminin with a 5x Gly insertion between I90 and K91 (K96 in post-insertion numbering; no deletion, since mutant residues 76-165 correspond to WT 76-160). Homodimer assumed as for wild …) MNPSMKQKQEEIKENIKNSSVPRRTLKMIQPSASGSLVGRENELSAGLSKRKHRNDHLTSTTSSPGVIVPESSENKNLGGVTQESFDLMIGGGGGKENPSSQYWKEVAEKRRKALYEALKENEKLHKEIEQKDNEIARLKKENKELAEVAEHVQYMAELIERLNGEPLDNFESLDNQEFDSEEETVEDSLVEDSEIGTCAEGTVSSSTDAKPCI |  |  |  | Kd [8]: 38 nM
11 | Gem^102–160 (peptide, UniProt O75496 102-160, looked up, geminin, human, UniProt O75496, residues 102-160; Made on Rink amide resin; source: synthetic peptide) peptide: Ac-VAEKRRKALYEALKENEKLHKEIEQKDNEIARLKKENKELAEVAEHVQYMAELIERLNG-NH2 | 2 |  | 2800 | 
